Results published in patent publication US20170165337A1 (IMMATICS BIOTECHNOLOGIES, published 2017).
Where no end group is shown, it is not given here. [ ]: non-standard residue; d: D form. pS = N[C@@H](COP(=O)(O)O)C(=O)O

Molecular target: T1, HLA-A*02:01 (human)
T1 construct: MHC class I monomer of the UV-ligand exchange assay; also called peptide-receptive MHC molecules; MHC class I
Experiment: UV peptide-exchange ELISA
Excerpt: Candidate peptides for T cell based therapies according to the present invention were further tested for their MHC binding capacity (affinity). The individual peptide-MHC complexes were produced by UV-ligand exchange, where a UV-sensitive peptide is cleaved upon UV-irradiation, and exchanged with the peptide of interest as analyzed. Only peptide candidates that can effectively bind and stabilize the peptide-receptive MHC molecules prevent dissociation of the MHC complexes. To determine the yield of the exchange reaction, an ELISA was performed based on the detection of the light chain (β2m) of stabilized MHC complexes. The assay was performed as generally described in Rodenko et al. (Rodenko et al., 2006).
96 well MAXISorp plates (NUNC) were coated over night with 2 ug/ml streptavidin in PBS at room temperature, washed 4× and blocked forl h at 37° C. in 2% BSA containing blocking buffer. Refolded HLA-A*02:01/MLA-001 monomers served as standards, covering the range of 15-500 ng/ml. Peptide-MHC monomers of the UV-exchange reaction were diluted 100 fold in blocking buffer. Samples were incubated for 1 h at 37° C., washed four times, incubated with 2 ug/ml HRP conjugated anti-β2m for 1 h at 37° C., washed again and detected with TMB solution that is stopped with […]. Absorption was measured at 450 nm. Candidate peptides that show a high exchange yield (preferably higher than 50%, most preferred higher than 75%) are generally preferred for a generation and production of antibodies or fragments thereof, and/or T cell receptors or fragments thereof, as they show sufficient avidity to the MHC molecules and prevent dissociation of the MHC complexes.

Question: Which peptide exchange yield does the source give for NLDKLWTLV here?
Answer: The peptide exchange yield was 20 to 50%.

Question: ALLRLLPGL was tested. Which peptide exchange yield did it give?
Answer: The peptide exchange yield was 50 to 75%.

Question: Which peptide exchange yield does the source give for ALFTF[pS]PLTV [ALFTFJPLTV] here?
Answer: The peptide exchange yield was 50 to 75%.

Question: With KLGGTPAPA as the binder, how does the peptide exchange yield read?
Answer: Its peptide exchange yield is 20 to 50%.

Question: How did the peptide exchange yield turn out when KLILLDTPLFL was run?
Answer: Its peptide exchange yield is 50 to 75%.

Question: How did the peptide exchange yield turn out when VLPAEFFEV was run?
Answer: The peptide exchange yield was 50 to 75%.

Question: SIVASLITV was tested. Which peptide exchange yield did it give?
Answer: The peptide exchange yield was 50 to 75%.

Question: With ILYNLYDLL as the binder, how does the peptide exchange yield read?
Answer: The peptide exchange yield was 50 to 75%.

Question: AIDAALTSV was tested. Which peptide exchange yield did it give?
Answer: The peptide exchange yield was 50 to 75%.

Question: SLDNGGYYI was tested. Which peptide exchange yield did it give?
Answer: Its peptide exchange yield is 50 to 75%.

Question: With LLLAEAELLTL as the binder, how does the peptide exchange yield read?
Answer: The peptide exchange yield was 20 to 50%.

Question: How did the peptide exchange yield turn out when QIAELPATSV was run?
Answer: Its peptide exchange yield is 50 to 75%.

Question: For KLMNDIADI, which peptide exchange yield is on record?
Answer: Its peptide exchange yield is 20 to 50%.

Question: How did the peptide exchange yield turn out when LLLEIGEVGKLFV was run?
Answer: The peptide exchange yield was 50 to 75%.

Question: How did the peptide exchange yield turn out when NLIKTVIKL was run?
Answer: The peptide exchange yield was 50 to 75%.

Question: How did the peptide exchange yield turn out when VVDGMPPGV was run?
Answer: The peptide exchange yield was 50 to 75%.

Question: MTAGFSTIAGSV was tested. Which peptide exchange yield did it give?
Answer: The peptide exchange yield was 10 to 20%.

Question: How did the peptide exchange yield turn out when ALPEVSVEA was run?
Answer: The peptide exchange yield was 50 to 75%.

Question: QILSEIVEA was tested. Which peptide exchange yield did it give?
Answer: The peptide exchange yield was 20 to 50%.

Question: How did the peptide exchange yield turn out when NLLDIDAPVTV was run?
Answer: The peptide exchange yield was 50 to 75%.

Question: For LLILENILL, which peptide exchange yield is on record?
Answer: Its peptide exchange yield is 50 to 75%.

Question: LLPTAPTTV was tested. Which peptide exchange yield did it give?
Answer: The peptide exchange yield was 50 to 75%.

Question: Which peptide exchange yield does the source give for RLLILENILL here?
Answer: Its peptide exchange yield is 50 to 75%.

Question: How did the peptide exchange yield turn out when IQDRAVPSL was run?
Answer: Its peptide exchange yield is 20 to 50%.

Question: For FVYGESVEL, which peptide exchange yield is on record?
Answer: The peptide exchange yield was 50 to 75%.

Question: With SLQEEKLIYV as the binder, how does the peptide exchange yield read?
Answer: The peptide exchange yield was 50 to 75%.

Question: SLFDSAYGA was tested. Which peptide exchange yield did it give?
Answer: Its peptide exchange yield is 50 to 75%.

Question: With LIPEGPPQV as the binder, how does the peptide exchange yield read?
Answer: Its peptide exchange yield is 50 to 75%.

Question: FMASHLDYL was tested. Which peptide exchange yield did it give?
Answer: The peptide exchange yield was 50 to 75%.

Question: Which peptide exchange yield does the source give for SLFDQPLSII here?
Answer: The peptide exchange yield was 50 to 75%.

Question: Which peptide exchange yield does the source give for AIPPSFASIFL here?
Answer: The peptide exchange yield was 50 to 75%.

Question: Which peptide exchange yield does the source give for VIYTLIHYI here?
Answer: The peptide exchange yield was 50 to 75%.

Question: For MLLEHGITLV, which peptide exchange yield is on record?
Answer: The peptide exchange yield was no less than 75%.

Question: How did the peptide exchange yield turn out when ALGEDEITL was run?
Answer: Its peptide exchange yield is 50 to 75%.

Question: With SLMLEVPAL as the binder, how does the peptide exchange yield read?
Answer: Its peptide exchange yield is 50 to 75%.

Question: With LLPEGGITAI as the binder, how does the peptide exchange yield read?
Answer: Its peptide exchange yield is 50 to 75%.

Question: With QLDEPAPQV as the binder, how does the peptide exchange yield read?
Answer: The peptide exchange yield was 20 to 50%.

Question: Which peptide exchange yield does the source give for LLIPVVPGV here?
Answer: The peptide exchange yield was 50 to 75%.

Question: With SLSFLVPSL as the binder, how does the peptide exchange yield read?
Answer: The peptide exchange yield was 50 to 75%.

Question: Which peptide exchange yield does the source give for LLSEEEYHL here?
Answer: Its peptide exchange yield is 50 to 75%.

Question: Which peptide exchange yield does the source give for LVYEAIIMV here?
Answer: Its peptide exchange yield is 50 to 75%.

Question: How did the peptide exchange yield turn out when SLPEAPLDV was run?
Answer: The peptide exchange yield was 50 to 75%.

Question: How did the peptide exchange yield turn out when KLWNVAAPLYL was run?
Answer: Its peptide exchange yield is 50 to 75%.

Question: Which peptide exchange yield does the source give for SLLAELHVL here?
Answer: Its peptide exchange yield is 50 to 75%.

Question: With NLTDVVEKL as the binder, how does the peptide exchange yield read?
Answer: Its peptide exchange yield is 50 to 75%.

Question: SALDTITTV was tested. Which peptide exchange yield did it give?
Answer: The peptide exchange yield was 50 to 75%.

Question: SLIRILQTI was tested. Which peptide exchange yield did it give?
Answer: Its peptide exchange yield is 50 to 75%.

Question: How did the peptide exchange yield turn out when KVPAEEVLVAV was run?
Answer: The peptide exchange yield was 50 to 75%.

Question: How did the peptide exchange yield turn out when SMDDGMINV was run?
Answer: Its peptide exchange yield is 50 to 75%.

Question: Which peptide exchange yield does the source give for SLNIGDVQL here?
Answer: The peptide exchange yield was 50 to 75%.

Question: For LLLEETEKQAV, which peptide exchange yield is on record?
Answer: Its peptide exchange yield is 50 to 75%.

Question: How did the peptide exchange yield turn out when SMKDDLENV was run?
Answer: Its peptide exchange yield is 20 to 50%.

Question: With LLFDHLEPMEL as the binder, how does the peptide exchange yield read?
Answer: Its peptide exchange yield is 50 to 75%.

Question: Which peptide exchange yield does the source give for LLFDKLYLL here?
Answer: Its peptide exchange yield is 50 to 75%.

Question: For SILETVATL, which peptide exchange yield is on record?
Answer: The peptide exchange yield was 50 to 75%.

Question: SLLAELHVLTV was tested. Which peptide exchange yield did it give?
Answer: The peptide exchange yield was no less than 75%.

Question: With SIIEGPIIKL as the binder, how does the peptide exchange yield read?
Answer: Its peptide exchange yield is 50 to 75%.

Question: Which peptide exchange yield does the source give for RLYEITIEV here?
Answer: The peptide exchange yield was no less than 75%.

Question: Which peptide exchange yield does the source give for YLLSGDISEA here?
Answer: Its peptide exchange yield is 50 to 75%.

Question: LLVLIPVYL was tested. Which peptide exchange yield did it give?
Answer: Its peptide exchange yield is 10 to 20%.

Question: QLLDTYFTL was tested. Which peptide exchange yield did it give?
Answer: The peptide exchange yield was 50 to 75%.

Question: KTLDVDATYEI was tested. Which peptide exchange yield did it give?
Answer: The peptide exchange yield was 50 to 75%.

Question: With KLWEGLTELV as the binder, how does the peptide exchange yield read?
Answer: The peptide exchange yield was 50 to 75%.

Question: How did the peptide exchange yield turn out when SLNIRDFTM was run?
Answer: The peptide exchange yield was 50 to 75%.

Question: With LQALEVLKI as the binder, how does the peptide exchange yield read?
Answer: The peptide exchange yield was 10 to 20%.

Question: LLIGATMQV was tested. Which peptide exchange yield did it give?
Answer: Its peptide exchange yield is 50 to 75%.

Question: With SQLDISEPYKV as the binder, how does the peptide exchange yield read?
Answer: Its peptide exchange yield is 50 to 75%.
